Results published in patent US20170128596A1, “Peptide-Based Compounds and Their Uses for Tumor Imaging and Targeting” (Klinikum rechts der lsar der Technischen Universitaet …, priority 2014, published 2017).
Blank lines part the entries; values can stand above or below the compound they belong to.

Tests used:
[1] = Toxicity testing in healthy and tumor-bearing BALB/c mice
Procedure: Concentrations up to 500 μg of TPP per mouse were tested in tumor-bearing mice (s.c. tumors, size 0.4 cm^3). The health status and the general behavior of mice were inspected. Animals were sacrificed on day 5 and the heart, liver, spleen, lung and kidneys examined for pathological changes using standard histological techniques.

[2] = Ex vivo biodistribution in CT26 tumor-bearing mice by NIRF quantification; design: species or system mouse; conditions: i.v.
Procedure: Regression equation of linear regression analysis (lower panel). The concentration of TPP[Cy5.5] in organs was calculated using this regression equation. Scale bar, 5 mm.
For biodistribution tumor-bearing mice were sacrificed 12, 24 or 48 h after i.v. injection of TPP[Cy5.5]. Fluorescent signal intensities of 0.25 cm^3 tissue cubes, taken from the tumor, spleen, pancreas, liver, lung, duodenum, kidney, heart, and 0.25 ml of peripheral blood were measured as described above. Agarose-gel cubes with standardized concentrations were used to calculate the probe concentrations in the investigated tissue samples.
After the mice had been sacrificed, the contents of TPP[Cy5.5] in the tumors and organs (spleen, pancreas, liver, lung, duodenum, kidney, heart and blood) were assessed. […] Fluorescence intensities of the tissues were measured as described in the imaging procedures chapter. Quantification of the Cy5.5 contents in the defined tissue volumes was calculated using fluorescence signal intensities of standards with defined concentrations. […] Fluorescence signal intensity was measured using the same instrument settings than for the tissue specimen (FIG. 10, upper panel). […] Linear regression equation of the standards was calculated with Microsoft Excel 2007 (FIG. 10, lower panel). The concentration of TPP[Cy5.5] in organs was calculated using the regression equation.

[3] = target: membrane-bound Heat shock protein 70 (Hsp70) on human tumor cells (human) (UniProt P0DMV8); experiment: flow cytometry, single cell suspension of in vivo-grown HCT-116 human colon tumor
[4] = target: membrane-bound Heat shock protein 70 (Hsp70) on human tumor cells (human) (UniProt P0DMV8); experiment: flow cytometry, single cell suspension of in vivo-grown FaDu human head & neck tumor
[5] = target: membrane-bound Heat shock protein 70 (Hsp70) on human tumor cells (human) (UniProt P0DMV8); experiment: flow cytometry, single cell suspension of in vivo-grown HeLa human cervix tumor
[6] = target: membrane-bound Heat shock protein 70 (Hsp70) on murine tumor cells (mouse) (UniProt Q61696); experiment: flow cytometry, single cell suspension of CAC murine colon tumor
[7] = target: membrane-bound Heat shock protein 70 (Hsp70) on human tumor cells (human) (UniProt P0DMV8); experiment: flow cytometry, single cell suspension of in vivo-grown Cal-33 human head & neck tumor
[8] = target: membrane-bound Heat shock protein 70 (Hsp70) on human tumor cells (human) (UniProt P0DMV8); experiment: flow cytometry, single cell suspension of in vivo-grown T-47D human mammary tumor
[9] = target: membrane-bound Heat shock protein 70 (Hsp70) on murine tumor cells (mouse) (UniProt Q61696); experiment: flow cytometry, single cell suspension of PDAC murine pancreas tumor
[10] = target: membrane-bound Heat shock protein 70 (Hsp70) on murine tumor cells (mouse) (UniProt Q61696); experiment: flow cytometry, single cell suspension of in vivo-grown CT26 murine colon tumor
[11] = target: membrane-bound Heat shock protein 70 (Hsp70) on human tumor cells (human) (UniProt P0DMV8); experiment: flow cytometry, single cell suspension of in vivo-grown Panc-1 human pancreas tumor
[12] = target: membrane-bound Heat shock protein 70 (Hsp70) on human tumor cells (human) (UniProt P0DMV8); experiment: flow cytometry, single cell suspension of in vivo-grown MDA-MB231 human mammary tumor
[13] = target: membrane-bound Heat shock protein 70 (Hsp70) on human tumor cells (human) (UniProt P0DMV8); experiment: flow cytometry, single cell suspension of in vivo-grown A549 human lung tumor
[14] = target: membrane-bound Heat shock protein 70 (Hsp70) on human tumor cells (human) (UniProt P0DMV8); experiment: flow cytometry, single cell suspension of in vivo-grown CX-2 human colon tumor
[15] = target: membrane-bound Heat shock protein 70 (Hsp70) on murine tumor cells (mouse) (UniProt Q61696); experiment: flow cytometry, single cell suspension of in vivo-grown 4T1 murine mammary tumor
[16] = target: membrane-bound Heat shock protein 70 (Hsp70) on human tumor cells (human) (UniProt P0DMV8); experiment: flow cytometry, single cell suspension of in vivo-grown H-1339 human lung tumor
[17] = target: membrane-bound Heat shock protein 70 (Hsp70) on human tumor cells (human) (UniProt P0DMV8); experiment: flow cytometry, single cell suspension of in vivo-grown MCF-7 human mammary tumor
[18] = target: membrane-bound Heat shock protein 70 (Hsp70) on human tumor cells (human) (UniProt P0DMV8); experiment: flow cytometry, single cell suspension of in vivo-grown COLO357 human pancreas tumor
[19] = target: membrane-bound Heat shock protein 70 (Hsp70) on human tumor cells (human) (UniProt P0DMV8); experiment: flow cytometry, single cell suspension of in vivo-grown MIA PaCa-2 human pancreas tumor
[20] = test system: MCF7, MDA-MB-231, T47D cells; experiment: Peptide uptake into human breast cancer cell lines by confocal microscopy; type: cell-based; conditions: 30 min at 37° C.
Procedure: Human breast cancer cell lines (MCF7, MDA-MB-231, T47D) expressing different levels of membrane Hsp70 were incubated with CF-TPP or a scrambled peptide for 30 min at 37° C. and internalization of the peptides was imaged by confocal microscopy.

Sequence of membrane-bound Heat shock protein 70 (Hsp70) on murine tumor cells (mouse) (Q61696 2-641): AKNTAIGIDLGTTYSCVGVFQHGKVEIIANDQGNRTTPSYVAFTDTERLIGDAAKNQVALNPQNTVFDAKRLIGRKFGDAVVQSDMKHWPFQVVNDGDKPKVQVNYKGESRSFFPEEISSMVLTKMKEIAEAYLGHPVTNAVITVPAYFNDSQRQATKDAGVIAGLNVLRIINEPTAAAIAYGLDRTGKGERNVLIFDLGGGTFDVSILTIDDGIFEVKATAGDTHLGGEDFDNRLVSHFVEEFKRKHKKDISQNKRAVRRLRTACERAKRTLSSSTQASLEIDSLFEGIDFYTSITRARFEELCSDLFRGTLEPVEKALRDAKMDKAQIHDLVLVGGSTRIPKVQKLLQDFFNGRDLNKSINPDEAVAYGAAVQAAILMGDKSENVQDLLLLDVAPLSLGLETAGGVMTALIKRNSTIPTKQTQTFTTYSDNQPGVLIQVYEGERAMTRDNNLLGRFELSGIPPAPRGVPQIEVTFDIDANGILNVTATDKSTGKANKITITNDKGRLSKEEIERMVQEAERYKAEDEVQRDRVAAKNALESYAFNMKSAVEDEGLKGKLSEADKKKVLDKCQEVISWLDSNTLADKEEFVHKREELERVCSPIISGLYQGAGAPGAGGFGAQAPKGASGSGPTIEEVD
Sequence of membrane-bound Heat shock protein 70 (Hsp70) on human tumor cells (human) (P0DMV8 2-641): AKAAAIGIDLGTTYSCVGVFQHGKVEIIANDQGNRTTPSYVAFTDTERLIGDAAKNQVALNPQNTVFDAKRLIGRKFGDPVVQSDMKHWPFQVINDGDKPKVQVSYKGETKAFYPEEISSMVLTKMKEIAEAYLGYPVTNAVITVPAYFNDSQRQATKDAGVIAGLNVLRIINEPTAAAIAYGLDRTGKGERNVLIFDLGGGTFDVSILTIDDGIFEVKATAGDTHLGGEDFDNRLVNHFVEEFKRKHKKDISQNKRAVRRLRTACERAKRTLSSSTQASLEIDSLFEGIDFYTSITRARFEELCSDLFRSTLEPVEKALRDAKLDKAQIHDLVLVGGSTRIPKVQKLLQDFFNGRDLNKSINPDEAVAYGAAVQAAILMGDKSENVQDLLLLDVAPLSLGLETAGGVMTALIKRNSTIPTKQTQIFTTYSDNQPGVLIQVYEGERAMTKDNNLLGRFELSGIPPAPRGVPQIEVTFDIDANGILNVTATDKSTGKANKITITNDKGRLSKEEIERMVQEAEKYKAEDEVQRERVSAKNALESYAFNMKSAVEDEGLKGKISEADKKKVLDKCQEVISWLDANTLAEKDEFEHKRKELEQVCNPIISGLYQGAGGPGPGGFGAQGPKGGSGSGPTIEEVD

Compound: CC(C)C[C@H](NC(=O)[C@H](CC(C)C)NC(=O)[C@H](CC(N)=O)NC(=O)[C@H](CC(N)=O)NC(=O)[C@H](CC(=O)O)NC(=O)[C@H](CCCCN)NC(=O)[C@@H](N)[C@@H](C)O)C(=O)NCC(=O)N[C@@H](CCCNC(=N)N)C(=O)N[C@@H](Cc1ccccc1)C(=O)N[C@@H](CCC(=O)O)C(=O)N[C@@H](CC(C)C)C(=O)N[C@@H](CO)C(=O)NCC(=O)O [TPP, TKDNNLLGRFELSG]
loss of weight or change in mobility ([1]; BALB/c mice, i.v. 500 to 1050 μg): Nor did any animal exhibit any loss of weight or change in mobility | gross monitoring for toxic reactions (skin ulcerations, toxic death) ([1]; BALB/c mice, i.v. 500 to 1050 μg (25 to 50 μg/g)): did not show any toxic reactions | histological examination of heart, liver, spleen, lung and kidney ([1]; day 5 after injection): no pathological changes | side effects in tumor-bearing mice ([1]; up to 500 μg per mouse): did not exert any side effects | route of clearance [2]: cleared from the body by renal excretion

% membrane-positive cells [3]: 63.3% | % membrane-positive cells [4]: 59% | % membrane-positive cells [5]: 55% | % membrane-positive cells [6]: 51.2% | % membrane-positive cells [7]: 68.1% | % membrane-positive cells [8]: 48% | % membrane-positive cells [9]: 50% | % membrane-positive cells [10]: 55.5% | % membrane-positive cells [11]: 46% | % membrane-positive cells [12]: 63.3% | % membrane-positive cells [13]: 76.3% | % membrane-positive cells [14]: 56.6% | % membrane-positive cells [15]: 56.3% | % membrane-positive cells [16]: 60% | % membrane-positive cells [17]: 58% | % membrane-positive cells [18]: 57.8% | % membrane-positive cells [19]: 58.5%
Compound: cmHsp70.1 monoclonal antibody (FITC-conjugated for flow cytometry)

Compound: NGLTLKNDFSRLEG (scrambled control peptide)
internalization into tumor cells [20]: not internalized
